# Measurements: patent US20220204592A1 (VISTERRA, published 2022)
# Substitutions are numbered along the chain they refer to. Read-outs that look alike come from different tables or passages of the source.
# B1: Ab A18 (antibody, V domains shown)
# VH: EVQLLESGGGLVKPGQSLKLSCAASGFTFTSYGMHWVRQPPGKGLEWVAVISYDGSYKYYADSVQGRFTISRDNSKNTLYLQMNSLRAEDTAVYYCAKDSRLRSLLYFEWLSQGYFNPWGAGTTLTVSS
# VL: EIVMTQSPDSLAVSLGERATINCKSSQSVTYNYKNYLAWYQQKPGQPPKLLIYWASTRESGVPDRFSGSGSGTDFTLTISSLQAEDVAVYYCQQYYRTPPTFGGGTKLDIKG
# B2: Ab 044 (antibody, V domains shown)
# VH: B1 VH with E1Q, S7T, G33A, I51V, S56N, A121Q
# VL: DIQMTQSPSSLSASVGDRVTITCRSSQSITFDYKNYLAWYQQKPGKAPKLLIYWGSYLESGVPSRFSGSGSGTDFTLTISSLQPEDFATYYCQQHYRTPPSFGQGTKVEIK
# B3: Ab 032 (antibody, V domains shown)
# VH: B1 VH with E1Q, S7T, G33A, I51V, S56N, A121Q
# VL: B2 VL with D32N
# Columns and labels:
# [1] = molecular target: H3 hemagglutinin of H3N2 strain X-31 (influenza A virus X-31 (H3N2), UniProt P03437 17-566); test: cell-based or functional assay
# [2] = molecular target: T1, H1 hemagglutinin (A/Solomon Islands/3/2006) (influenza A virus A/Solomon …); test: ELISA on coated HA, relative Kd (4-parameter fit)
# [3] = molecular target: T2, H1 hemagglutinin (A/Solomon Islands/20/1999) (influenza A virus A/Solomon …); test: ELISA on coated HA
# T2 construct: ELISA antigen
# [4] = molecular target: H3 hemagglutinin (A/Shangdong/09/93) (influenza A virus A/Shangdong/09/93 …); test: cell-based or functional assay
# [5] = molecular target: H1 hemagglutinin of H1N1 Solomon Islands (isolate not specified); test: cell-based or functional assay
# [6] = molecular target: H1 hemagglutinin (A/California/04/2009) (influenza A virus A/California/04/2009 …); test: cell-based or functional assay
# [7] = molecular target: H5 hemagglutinin (A/Duck/MN/1525/81) (influenza A virus A/Duck/MN/1525/81 …); test: cell-based or functional assay
# [8] = molecular target: H3 hemagglutinin (A/Fujian/411/2003) (influenza A virus A/Fujian/411/2003 …); test: cell-based or functional assay
# [9] = molecular target: T1, H1 hemagglutinin (A/Solomon …); test: ELISA on coated HA, relative Kd (4-parameter fit); remark: listed apart in the source
binder,measurement,setting,value
B1,"IC50 (RT-PCR, neutralisation)",[1],0.4 µg/mL
same,Kd,[2],0.144 nM
B2,Kd,[3],< 0.5 nM
same,"EC50, Neutral Red (CPE inhibition)",[4],0.6 µg/mL
same,"EC50, Neutral Red (CPE inhibition)",[5],1.2 µg/mL
same,"EC50, Neutral Red (CPE inhibition)",[6],5.1 µg/mL
same,"EC50, Neutral Red (CPE inhibition)",[7],1.5 µg/mL
same,"EC50, Neutral Red (CPE inhibition)",[8],0.3 µg/mL
B3,Kd,[9],< 0.025 nM
